Patent publication US9580464B2, “Anti-inflammatory proteins and peptides and methods of preparation and use thereof” (ManukaMed Limited, priority 2012, dated 2017)

Columns and labels:
[1] = target: Cathepsin B from bovine spleen (Bos taurus, UniProt P07688); test: Assay for Cathepsin B activity / inhibition (Z-Lys-pNP substrate, absorbance 330 nm); type: biochemical
[2] = Anti-inflammatory activity of MGO-modified proteins (results not shown)
From the text: As used herein, “anti-inflammatory capacity” is defined as the capacity to clinically reduce inflammation or the symptoms of inflammation in cellular tissue. Anti-inflammatory capacity may be determined using the phagocytosis inhibition assay (PIA) described in PCT/NZ PCT/NZ/2011/000271 or the DCFDA assay also described in PCT/NZ/2011/000271 or the anti-inflammatory capacity may also be determined by the inhibition of Cathepsin B as described in detail below.

[3] = Table 6, MRJP1 derived synthetic peptides, MGO-modified
[4] = Table 6, MRJP1 derived synthetic peptides, unmodified
[5] = Table 8, MRJP5 derived synthetic peptides, MGO-modified
[6] = Table 8, MRJP5 derived synthetic peptides, unmodified
[7] = Table 9, additional synthetic peptides, MGO-modified
[8] = Table 9, additional synthetic peptides, unmodified
[9] = Table 3, peptides from C-terminus of MRJP3, 2 mM MGO-modified peptide
[10] = Table 3, peptides from C-terminus of MRJP3, 2 mM unmodified peptide
[11] = Table 1, peptides from C-terminus of MRJP1, 2 mM MGO-modified peptide
[12] = Table 1, peptides from C-terminus of MRJP1, 2 mM unmodified peptide

Cathepsin B remaining activity (% of control) [1, 3]	Cathepsin B remaining activity (% of control) [1, 4]	Cathepsin B remaining activity (% of control) [1, 5]	Cathepsin B remaining activity (% of control) [1, 6]	Molecule	further results
71.18 ± 2.22	174.56 ± 11.96	–	–	H-FDR-OH (H-Phe-Asp-Arg-OH) [MRJP1 derived synthetic peptide]	–
–	–	68.49 ± 8.73	99.83 ± 3.40	Ac-VNR-OH (Ac-Val-Asn-Arg-OH) [MRJP5 derived synthetic peptide]	–
–	–	81.75 ± 3.26	93.46 ± 12.24	Ac-IDR-OH (Ac-Ile-Asp-Arg-OH) [MRJP5 derived synthetic peptide]	–
–	–	91.86 ± 3.50	102.61 ± 5.34	H-TNR-OH (H-Thr-Asn-Arg-OH) [MRJP5 derived synthetic peptide]	–
76.59 ± 2.24	147.63 ± 0.70	–	–	H-FTK-OH (H-Phe-Thr-Lys-OH) [MRJP1 derived synthetic peptide]	–
–	–	87.53 ± 3.26	103.18 ± 4.50	H-TDK-OH (H-Thr-Asp-Lys-OH) [MRJP5 derived synthetic peptide]	–
–	–	70.62 ± 12.34	104.25 ± 2.73	H-MDK-OH (H-Met-Asp-Lys-OH) [MRJP5 derived synthetic peptide]	–
69.15 ± 4.87	121.24 ± 3.57	–	–	Ac-MQK-OH (Ac-Met-Gln-Lys-OH) [MRJP1 derived synthetic peptide]	–
–	–	80.66 ± 6.19	96.77 ± 9.26	H-MHR-OH (H-Met-His-Arg-OH) [MRJP5 derived synthetic peptide]	–
106.82 ± 3.02	171.58 ± 11.29	–	–	Ac-HNIR-OH [MRJP1 derived synthetic peptide]	–
–	–	85.60 ± 5.32	98.02 ± 2.54	H-IDR-OH (H-Ile-Asp-Arg-OH) [MRJP5 derived synthetic peptide]	–
104.39 ± 2.68	143.48 ± 2.33	–	–	H-MTR-OH (H-Met-Thr-Arg-OH) [MRJP1 derived synthetic peptide]	–
–	–	90.15 ± 1.52	102.05 ± 10.32	Ac-LQK-OH (Ac-Leu-Gln-Lys-OH) [MRJP5 derived synthetic peptide]	–

Second part, the molecule before the results:

Molecule	Cathepsin B remaining activity (% of control) [1, 3]	Cathepsin B remaining activity (% of control) [1, 4]	Cathepsin B remaining activity (% of control) [1, 5]	Cathepsin B remaining activity (% of control) [1, 6]	further results
H-HNIR-OH [MRJP1 derived synthetic peptide]	103.38 ± 3.65	151.51 ± 0.62	–	–	–
Ac-MDR-OH (Ac-Met-Asp-Arg-OH) [MRJP5 derived synthetic peptide]	–	–	88.56 ± 2.14	107.34 ± 1.46	–
Ac-TDK-OH (Ac-Thr-Asp-Lys-OH) [MRJP5 derived synthetic peptide]	–	–	92.75 ± 2.41	100.51 ± 10.69	–
H-LQK-OH (H-Leu-Gln-Lys-OH) [MRJP5 derived synthetic peptide]	–	–	95.26 ± 5.54	102.47 ± 4.27	–
Ac-LVK-NH2 (Ac-Leu-Val-Lys-NH2) [synthetic peptide derived from MRJP3 (see Leu170), amidated C-terminus]	–	–	–	–	Cathepsin B remaining activity (% of control) [1, 7]: 80.03; Cathepsin B remaining activity (% of control) [1, 8]: 92.71 ± 7.78
H-MQK-OH (H-Met-Gln-Lys-OH) [MRJP1 derived synthetic peptide]	99.48 ± 2.95	127.00 ± 0.93	–	–	–
Ac-FTK-OH (Ac-Phe-Thr-Lys-OH) [MRJP1 derived synthetic peptide]	105.35 ± 5.73	148.84 ± 16.13	–	–	–
MGO-modified bovine serine albumin: bovine serum albumin reacted with methylglyoxal, comparison protein [reference compound]	–	–	–	–	Anti-inflammatory activity [2]: no anti-inflammatory activity
Ac-MDK-OH (Ac-Met-Asp-Lys-OH) [MRJP5 derived synthetic peptide]	–	–	99.38 ± 1.63	109.67 ± 3.13	–
Ac-LLK-OH (Ac-Leu-Leu-Lys-OH) [synthetic peptide derived from MRJP1, 2, 4]	–	–	–	–	Cathepsin B remaining activity (% of control) [1, 7]: 147.60; Cathepsin B remaining activity (% of control) [1, 8]: 141.56 ± 13.90
Ac-LLK-NH2 (Ac-Leu-Leu-Lys-NH2) [synthetic peptide derived from MRJP1, 2, 4, amidated C-terminus]	–	–	–	–	Cathepsin B remaining activity (% of control) [1, 7]: 136.90; Cathepsin B remaining activity (% of control) [1, 8]: 159.34 ± 2.34
Ac-LIR-NH2 (Ac-Leu-Ile-Arg-NH2) [synthetic peptide derived from MRJP2, 4 (see Leu408), amidated C-terminus]	–	–	–	–	Cathepsin B remaining activity (% of control) [1, 7]: 72.56; Cathepsin B remaining activity (% of control) [1, 8]: 65.39 ± 2.75
H-VNR-OH (H-Val-Asn-Arg-OH) [MRJP5 derived synthetic peptide]	–	–	82.63 ± 7.88	97.75 ± 10.62	–
Ac-LVK-OH (Ac-Leu-Val-Lys-OH) [synthetic peptide derived from MRJP3 (see Leu170)]	–	–	–	–	Cathepsin B remaining activity (% of control) [1, 7]: 80.84; Cathepsin B remaining activity (% of control) [1, 8]: 143.92 ± 3.15
Ac-FDR-OH (Ac-Phe-Asp-Arg-OH) [MRJP1 derived synthetic peptide]	44.78 ± 1.54	85.57 ± 3.51	–	–	–
Ac-SKLH-OH [synthetic peptide derived from the C-terminus of MRJP3]	–	–	–	–	Cathepsin B remaining activity (% of control) [1, 9]: 67.57 ± 1.73; Cathepsin B remaining activity (% of control) [1, 10]: 146.35 ± 2.91
Ac-KISI-OH [synthetic peptide derived from the C-terminus of MRJP1]	–	–	–	–	Cathepsin B remaining activity (% of control) [1, 11]: 92.82 ± 5.44; Cathepsin B remaining activity (% of control) [1, 12]: 133.11 ± 4.29
Ac-CDR-OH (Ac-Cys-Asp-Arg-OH) [MRJP1 derived synthetic peptide]	78.51 ± 2.51	120.52 ± 8.17	–	–	–
Ac-TNR-OH (Ac-Thr-Asn-Arg-OH) [MRJP5 derived synthetic peptide]	–	–	91.72 ± 0.84	96.48 ± 2.03	–
Ac-MTR-OH (Ac-Met-Thr-Arg-OH) [MRJP1 derived synthetic peptide]	118.90 ± 5.62	126.30 ± 8.12	–	–	–
Ac-LIR-OH (Ac-Leu-Ile-Arg-OH) [synthetic peptide derived from MRJP2, 4 (see Leu408)]	–	–	–	–	Cathepsin B inhibition after MGO modification ([1]; MGO-modified synthetic peptides): particularly potent activity; Cathepsin B remaining activity (% of control) [1, 7]: 0.07; Cathepsin B remaining activity (% of control) [1, 8]: 128.28 ± 2.50
Ac-YINR-OH [MRJP1 derived synthetic peptide]	99.05 ± 7.78	93.14 ± 2.42	–	–	–
H-MDR-OH (H-Met-Asp-Arg-OH) [MRJP5 derived synthetic peptide]	–	–	74.46 ± 0.97	101.73 ± 2.37	–
Ac-MHR-OH (Ac-Met-His-Arg-OH) [MRJP5 derived synthetic peptide]	–	–	90.13 ± 17.28	101.26 ± 4.59	–
H-CDR-OH (H-Cys-Asp-Arg-OH) [MRJP1 derived synthetic peptide]	96.01 ± 6.45	165.10 ± 0.38	–	–	–
Ac-NQKN-OH [synthetic peptide derived from the C-terminus of MRJP2]	–	–	–	–	Cathepsin B remaining activity (% of control) ([1]; Table 2, peptides from C-terminus of MRJP2, 2 mM MGO-modified peptide): 102.36 ± 6.36; Cathepsin B remaining activity (% of control) ([1]; Table 2, peptides from C-terminus of MRJP2, 2 mM unmodified peptide): 282.39 ± 19.66
H-YINR-OH [MRJP1 derived synthetic peptide]	79.21 ± 2.12	142.33 ± 3.64	–	–	–
Ac-SSKS-OH	–	–	–	–	Cathepsin B remaining activity (% of control) [1, 9]: 107.49 ± 4.29; Cathepsin B remaining activity (% of control) [1, 10]: 118.71 ± 9.09
Ac-PFKI-OH [synthetic peptide derived from the C-terminus of MRJP1]	–	–	–	–	Cathepsin B remaining activity (% of control) [1, 11]: 91.45 ± 0.11; Cathepsin B remaining activity (% of control) [1, 12]: 152.05 ± 13.20
MGO-modified MRJP1: major royal jelly protein 1 (apalbumin 1) chemically modified by methylglyoxal (protein, UniProt O18330 20-432, looked up, methylglyoxal-modified, major royal jelly protein 1 (apalbumin 1) chemically modified by methylglyoxal) Major royal jelly protein 1: NILRGESLNKSLPILHEWKFFDYDFGSDERRQDAILSGEYDYKNNYPSDIDQWHDKIFVTMLRYNGVPSSLNVISKKVGDGGPLLQPYPDWSFAKYDDCSGIVSASKLAIDKCDRLWVLDSGLVNNTQPMCSPKLLTFDLTTSQLLKQVEIPHDVAVNATTGKGRLSSLAVQSLDCNTNSDTMVYIADEKGEGLIVYHNSDDSFHRLTSNTFDYDPKFTKMTIDGESYTAQDGISGMALSPMTNNLYYSPVASTSLYYVNTEQFRTSDYQQNDIHYEGVQNILDTQSSAKVVSKSGVLFFGLVGDSALGCWNEHRTLERHNIRTVAQSDETLQMIASMKIKEALPHVPIFDRYINREYILVLSNKMQKMVNNDFNFDDVNFRIMNANVNELILNTRCENPDNDRTPFKISIHL	–	–	–	–	Anti-inflammatory activity [2]: enhanced anti-inflammatory properties
